Measurements from paper PMC6271298, “Pharmacophore Generation from a Drug-like Core Molecule Surrounded by a Library Peptide via the 10BASEd-T on Bacteriophage T7” (Molecules, 2014).
5/6‑FAM = 5/6-carboxyfluorescein

B1: mock (Sal-unconjugated) fluorescent peptide (H2N-K-5/6-FAM-A-M-W-C-Q-Y-H-P-Q-N-C-Y-K-M-NH2) (peptide)
peptide: H-K(5/6‑FAM)AMWCQYHPQNCYKM-NH2
modifications: cysteine pairing not given here
notes: cysteines not alkylated; Assayed under reducing conditions (1 mM TCEP), so the cysteines are free thiols; also called mock peptide; unmodified fluorescent peptide; source: synthetic peptide (solid phase synthesis, reverse-phase HPLC)
B2: Sal-conjugated fluorescent peptide possessing the sequence of clone 7 (K-5/6-FAM-A-M-W-C*-Q-Y-H-P-Q-N-C*-Y-K-M-NH2) (peptide)
peptide: KAMWCQYHPQNCYKM
modifications: 5/6-FAM on the N-terminal lysine (K-5/6-FAM); Sal-conjugated Cys (C*) at both cysteines; C-terminal amide (NH2)
notes: Linear peptide; both cysteines are alkylated with 4-acetamidosalicylic acid (thioether); also called Sal-conjugated peptide; Sal-conjugated linear peptide; source: synthetic peptide (solid phase synthesis, HPLC), then conjugated with Sal-IA and purified by reverse-phase HPLC

Target: T1, streptavidin (UniProt P22629 25-183)
T1 construct: streptavidin; Commercial streptavidin is usually a homotetramer of a processed (core) form; also called SA; source: bought: Wako Pure Chemical Industries (ELISA)
T1 sequence (P22629 25-183): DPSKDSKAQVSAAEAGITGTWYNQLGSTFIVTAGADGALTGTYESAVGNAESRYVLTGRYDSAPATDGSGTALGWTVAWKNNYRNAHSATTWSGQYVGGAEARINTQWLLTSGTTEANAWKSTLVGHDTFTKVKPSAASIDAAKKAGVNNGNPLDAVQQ
Assay: fluorescence polarisation; 4 pmol FAM-labelled peptide with various concentrations of the protein; 50 mM Tris-HCl pH 8.0, 150 mM NaCl, 1 mM TCEP-NaOH, 30 °C; Klotz plot, non-linear least squares fit
Conditions: both partners purified

Binder	fold lower affinity than the Sal-conjugated peptide	Kd
B1	~10 fold	–
B2	–	180 nM
